Experimental data reported in paper PMC7471176.
Each block holds one substance with its values, some of them ahead of it.

Legend:
[1] = molecular target: Casein (Hammerstein casein)
[2] = molecular target: Casein (Hammerstein casein); remark: listed apart in the source

specific caseinolytic activity at pH 6, against that of the Y195R variant [1]: 1.8 fold
Substance: KP-43 Y195I (Tyr195Ile) variant (enzyme)

specific caseinolytic activity at pH 7, against that at pH 10 (series pH 6 to 10) [2]: 90%
Substance: KP-43 alkaline serine protease, wild type (enzyme)

specific caseinolytic activity at pH 10, against that of the Y195W variant [1]: 4.4 fold
Substance: KP-43 Y195Q (Tyr195Gln) variant (enzyme)
